The text below walks through data of paper doi:10.1101/2021.12.11.472236 (bioRxiv, 2021).

Where “and” joins values, the source holds several entries; their conditions need not be identical. Identical values can stand only once.

The target in assay [1] is S2P-prefusion-stabilized spike protein from SARS-CoV-2 WA-1 (SARS-CoV-2, WA-1, UniProt P0DTC2, stabilised). The experiment in a line: cryo-EM structure.
The target of assay [2] is S2P-prefusion-stabilized spike protein from SARS-CoV-2 B.1.351 (SARS-CoV-2, B.1.351 (Beta), strain). The experiment in a line: cryo-EM structure.

B1: 11-11 Fab (Fab, V domains shown)
VH: QVQLQESGPGLVKPSQTLSLTCTVSGGSISSGGYYWSWIRQHPGKGLEWIGYIYYSGSTYYNPSLKSRVTISVDTSKNQFSLKVSSVTAADTAVYYCASSNYYDGSGYNLLESYGMDVWGQGTSVTVSS
VL: QSVLTQPPSVSGAPGQRVTISCTGSSSNIGAGYDVHWYQQLPGTAPKLLIYGNSNRPSGVPDRFSGSRSGTSASLAITGLQAEDEADYYCQSYDSSLSGSWVFGGGTKVTVL
For the molecule B1, the binding result in assay [1] was “binds”. Besides, in assay [2], the “stoichiometry N” value is 3 Fabs per spike and 2 Fabs per spike.

B2: 10-40 Fab (Fab, V domains shown)
VH: QLQLQESGPGLVKPSETLSLTCTVSGGSISSSNFYWGWIRQPPGKGLEWIASITYSGRTFYNPSLKSRVAISVDTSKNQFSLKLSSVTAADTAVYYCARTFPSYYDRSGYHYLNYGMDVWGQGTTVTVSS
VL: NFMLTQPHSMSESPGKTVTISCTRSSGSIASNYVQWYQQRPGSSPTTVIYEDNQRPSGVPDRFSGSIDSSSNSASLTISGLKTEDEADYYCQSYDSSSWVFGGGTKLTVL
Regarding B2, the binding result in assay [1] is “binds”. In addition, the “stoichiometry N” value in assay [2] stood at 3 Fabs per spike.

B3: 10-28 Fab (Fab, V domains shown)
VH: QVQLVESGGGVVQPGRSLRLSCAASGFTFSSYDMHWVRQAPGKGLEWVAVISYDGSSKFYAESVKGRFTISRDNSKNTLYLQMNSLRAEETAVYYCVKDGEQLVPLFDYWGQGTLVTVSS
VL: not shown
In the case of B3, in assay [1], the binding result is listed as “binds”. In assay [2], the “stoichiometry N” value was found to be 3 Fabs per spike.
